In article PMC8202955, “The nonreceptor tyrosine kinase SRMS inhibits autophagy and promotes tumor growth by phosphorylating the scaffolding protein FKBP51” (PLoS Biology, 2021):

Columns and labels:
[1] = phosphorylation at Y54
[2] = target: T1, SRMS (Src-related kinase lacking C-terminal regulatory tyrosine and N-terminal myristylation sites) (Homo sapiens, UniProt Q9H3Y6); assay: peptide substrate mobility shift kinase assay with purified recombinant kinase domain ([…] SRMS, […] ATP); type: biochemical
T1 construct: human SRMS kinase domain (residues 221 to 486)
T1 sequence (Q9H3Y6 221-486): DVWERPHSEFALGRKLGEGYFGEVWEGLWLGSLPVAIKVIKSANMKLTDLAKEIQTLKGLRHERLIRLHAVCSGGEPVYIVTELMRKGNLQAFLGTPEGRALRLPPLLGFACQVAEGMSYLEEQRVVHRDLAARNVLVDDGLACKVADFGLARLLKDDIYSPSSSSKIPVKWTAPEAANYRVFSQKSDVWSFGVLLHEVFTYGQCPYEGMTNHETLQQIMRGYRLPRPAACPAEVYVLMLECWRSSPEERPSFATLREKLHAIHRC

| Compound | degradation_or_half_life [1] | IC50 [2] [µM] |
| --- | --- | --- |
| FKBP51: ibrutinib (SRMS inhibitor) | decreases | – |
| C=CC(=O)N1CCC[C@@H](n2nc(-c3ccc(Oc4ccccc4)cc3)c3c(N)ncnc32)C1 [ibrutinib] | – | 0.033 |
| FKBP51: SRMS knockout (CRISPR/Cas9) | decreases | – |
